Measured values as given in PMC9661471 (Journal of Medicinal Chemistry, 2022).
One block for each molecule: values may come before it. *1 amine or outer side, *2 acyl side, *3 side chain or, on linkers, in order; H or OH if unused. Bridges are numbered along the chain shown (N, C = ends). TATA = O=C(CC[*:1])N1CN(C(=O)CC[*:2])CN(C(=O)CC[*:3])C1

How the values were obtained:
[1] = target: human Nectin-4 ECD (human) (UniProt Q96NY8); assay: SPR
human Nectin-4 ECD = target: T1, human Nectin-4 ECD (human, UniProt Q96NY8 32-349); assay: fluorescence polarisation
T1 sequence (looked up): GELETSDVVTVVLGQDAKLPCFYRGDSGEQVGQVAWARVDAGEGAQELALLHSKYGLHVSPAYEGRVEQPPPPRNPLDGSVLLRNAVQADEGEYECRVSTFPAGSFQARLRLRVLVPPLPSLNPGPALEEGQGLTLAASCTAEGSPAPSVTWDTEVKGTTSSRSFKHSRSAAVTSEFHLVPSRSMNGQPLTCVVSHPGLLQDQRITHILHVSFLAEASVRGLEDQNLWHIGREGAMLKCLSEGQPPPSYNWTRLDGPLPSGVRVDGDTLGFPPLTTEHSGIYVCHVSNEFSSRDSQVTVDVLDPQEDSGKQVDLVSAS

Molecule: Bicycle Toxin Conjugate BT8009 (peptide)
Kd [1]: 2.5 nM

Ki (human Nectin-4 ECD): 17.6 nM
B1: Bicycle 10 (peptide)
peptide: Ac-CPFGCMKNWSWPIWC-NH2
modifications: linker 1-5-15 via TATA
SMILES: CC[C@H](C)[C@@H]1NC(=O)[C@@H]2CCCN2C(=O)[C@H](Cc2c[nH]c3ccccc23)NC(=O)[C@H](CO)NC(=O)[C@H](Cc2c[nH]c3ccccc23)NC(=O)[C@H](CC(N)=O)NC(=O)[C@H](CCCCN)NC(=O)[C@H](CCSC)NC(=O)[C@@H]2CSCCC(=O)N3CN(CN(C3)C(=O)CCSC[C@H](NC(C)=O)C(=O)N3CCC[C@H]3C(=O)N[C@@H](Cc3ccccc3)C(=O)NCC(=O)N2)C(=O)CCSC[C@@H](C(N)=O)NC(=O)[C@H](Cc2c[nH]c3ccccc23)NC1=O

Ki (human Nectin-4 ECD): 13.5 nM
Molecule: Ac-CPFGCMKNWSWPIWCTNK-NH2 (linker 1-5-15 via TATA) [Bicycle 8]
